Laboratory results reported in US9012166B2, “Method for assaying histone methylation enzyme activity” (Kyushu Institute of Technology, priority 2010, dated 2015).
*: point of attachment. AMC = Cc1cc(=O)oc2cc(N*)ccc12

Tested on: trypsin
Experiment: LC/MS analysis of reaction between substrate compound and trypsin
Assay type: biochemical
Details: Example 3; 37° C., 15 minutes
Description: Distilled water was added to 10 μL of 2×HMT buffer (100 mM Tris-HCl (pH 8.5), 20 mM MgCl2, 40 mM KCl, 20 mM 2-mercaptoethanol, 500 mM sucrose) and 1 μL of a BocLysMCA solution to adjust the total volume to 20 μL. To the resultant solution was added 30 μL of a peptidase solution (20 mg/mL trypsin or 20 mAU/mL lysyl endopeptidase), which was then mixed and incubated at 37° C. for 15 minutes. Then, the solution was applied to a liquid chromatograph mass spectrometer (LC/MS) for analysis. Analysis was performed by the same method as that for the above analysis except for using monomethylated BocLysMCA (i.e., “BocLys(Me)MCA”), dimethylated BocLysMCA (i.e., “BocLys(Me)2MCA”), or trimethylated BocLysMCA (i.e., “BocLys(Me)3MCA”) in place of BocLysMCA. Analysis was also carried out by the same method except for using, in place of the above-described peptidase solution, an equal volume of distilled water.

Row | Compound | hydrolysis by trypsin (LC/MS peaks)
1 | Cc1cc(=O)oc2cc(NC(=O)C(CCCCN)NC(=O)OC(C)(C)C)ccc12 (stereo not shown) [BocLysMCA, Boc-K-MCA] | most BocLysMCA was hydrolyzed

Biological target: T1, Set9 (His-Set9, His-Set7/9) (Homo sapiens, UniProt Q8WTS6)
T1 sequence (Q8WTS6 1-366): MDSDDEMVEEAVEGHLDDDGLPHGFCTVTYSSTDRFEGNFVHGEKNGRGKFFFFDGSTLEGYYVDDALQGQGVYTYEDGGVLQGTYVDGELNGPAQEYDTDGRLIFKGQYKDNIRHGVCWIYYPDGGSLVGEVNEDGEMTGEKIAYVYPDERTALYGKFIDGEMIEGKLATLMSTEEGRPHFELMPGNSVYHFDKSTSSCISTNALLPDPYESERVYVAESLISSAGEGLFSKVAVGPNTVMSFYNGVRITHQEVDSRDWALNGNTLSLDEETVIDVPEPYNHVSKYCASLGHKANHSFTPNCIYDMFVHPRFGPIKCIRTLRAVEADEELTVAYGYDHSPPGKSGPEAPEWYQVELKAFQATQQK
Experiment: Substrate specificity / methylation of peptidyl MCAs by Set9
Assay type: biochemical
Details: Example 6; His-Set9 0-1.5 μg/μL; right panel of FIG. 14
Description: When Set9 was adopted as a histone methyltransferase, the following method was used. 10 μL of 2×HMT buffer (100 mM Tris-HCl (pH 8.5), 20 mM MgCl2, 40 mM KCl, 20 mM 2-mercaptoethanol, 500 mM sucrose), 2 μL of a BSA solution (30 μg/mL), 3 μL of His-Set9 (0, 0.33 to 10 μg/μL), and 1 μL of distilled water were mixed and then incubated at room temperature for 1 hour. Then, 2 μL of SAM (10 mM) and 2 μL of a peptidyl MCA solution (0.6 mM) were added thereto, which was then incubated at 37° C. for 1 hour. Thereafter, 30 μL of a trypsin solution (20 mg/mL) was added thereto, followed by incubation at 37° C. for 15 minutes. Then, the fluorescence intensity of the solution was measured at an excitation wavelength (λex) of 390 nm and a fluorescence wavelength (λem) of 460 nm. The final concentration of His-Set9 during the measurement of fluorescence intensity was 0, 0.05, 0.15, 0.5, or 1.5 μg/μL. The results of the assay for measuring histone methyltransferase activity are shown in the right panel of FIG. 14.
When Set9 was adopted as a histone methyltransferase, the following method was used. 10 μL of 2×HMT buffer (100 mM Tris-HCl (pH 8.5), 20 mM MgCl2, 40 mM KCl, 20 mM 2-mercaptoethanol, 500 mM sucrose), 0.4 μL of a BSA solution (150 μg/mL), 5.9 μL of His-Set9 (0, 0.051, 0.17, 0.51, 1.7 μg/μL), and 1.7 μL of distilled water were mixed and then incubated at room temperature for 1 hour. Then, 1 μL of SAM (20 mM) and 1 μL of a peptidyl MCA solution (1.2 mM) were added thereto, which was then incubated at 37° C. for 1 hour. Thereafter, 30 μL of a trypsin solution (20 mg/mL) was added thereto, followed by incubation at 37° C. for 15 minutes. Then, the fluorescence intensity of the solution was measured at an excitation wavelength (λex) of 390 nm and a fluorescence wavelength (λem) of 460 nm. The final concentration of His-Set9 during the measurement of fluorescence intensity was 0, 0.015, 0.05, 0.15, or 0.5 μg/μL. The results of the assay for measuring histone methyltransferase activity are shown in the right panel of FIG. 16.
When Set7/9 was adopted as a histone methyltransferase, the following method was used. 10 μL of 2×HMT buffer (100 mM Tris-HCl (pH 8.5), 20 mM MgCl2, 40 mM KCl, 20 mM 2-mercaptoethanol, 500 mM sucrose), 0.4 μL of a BSA solution (150 μg/mL), 4 µL of His-Set7/9 (0, 0.025 to 0.75 μg/μL), and 3.6 μL of distilled water were mixed and then incubated at room temperature for 1 hour. Then, 1 μL of SAM (final concentration: 0.1 mM) and 1 μL of a peptidyl MCA solution (1.2 mM) were added thereto, which was then incubated at 37° C. for 1 hour. Thereafter, 30 μL of a trypsin solution (20 mg/mL) was added thereto, followed by incubation at 37° C. for 15 minutes. Then, the fluorescence intensity of the solution was measured at an excitation wavelength (λex) of 330 nm and a fluorescence wavelength (λem) of 380 nm or at an excitation wavelength (λex) of 390 nm and a fluorescence wavelength (λem) of 460 nm. The final concentration of His-Set7/9 during the measurement of fluorescence intensity was 0, 0.005, 0.015, 0.05, or 0.15 μg/μL.

Row | Compound | methylation of peptidyl MCA by Set9
2 | Ac-ARK-MCA (Ac-Ala-Arg-Lys-{AMC}; SMILES CC(=O)N[C@@H](C)C(=O)N[C@@H](CCCNC(=N)N)C(=O)N[C@@H](CCCCN)C(=O)Nc1ccc2c(C)cc(=O)oc2c1; listed as Homo sapiens) [Ac-histone H3 (7-9/25-27)-MCA, acetyl-ARK (human histone H3 7-9 or 25-27)-MCA substrate] | little methylation occurred
3 | Ac-LKSK-MCA (Ac-LKSK-{AMC}; SMILES CC(=O)N[C@@H](CC(C)C)C(=O)N[C@@H](CCCCN)C(=O)N[C@@H](CO)C(=O)N[C@@H](CCCCN)C(=O)Nc1ccc2c(C)cc(=O)oc2c1; listed as Homo sapiens) [Ac-p53 (369-372)-MCA] | methylation often occurred
4 | Ac-QTARK-MCA [Ac-histone H3 (5-9)-MCA] | little methylation occurred
5 | Ac-KAARK-MCA (Ac-KAARK-{AMC}; SMILES CC(=O)N[C@@H](CCCCN)C(=O)N[C@@H](C)C(=O)N[C@@H](C)C(=O)N[C@@H](CCCNC(=N)N)C(=O)N[C@@H](CCCCN)C(=O)Nc1ccc2c(C)cc(=O)oc2c1; listed as Homo sapiens) [Ac-histone H3 (23-27)-MCA] | little methylation occurred
6 | Ac-QLATKAARK-MCA (Ac-QLATKAARK-{AMC}; SMILES CC(=O)N[C@@H](CCC(N)=O)C(=O)N[C@@H](CC(C)C)C(=O)N[C@@H](C)C(=O)N[C@H](C(=O)N[C@@H](CCCCN)C(=O)N[C@@H](C)C(=O)N[C@@H](C)C(=O)N[C@@H](CCCNC(=N)N)C(=O)N[C@@H](CCCCN)C(=O)Nc1ccc2c(C)cc(=O)oc2c1)[C@@H](C)O; listed as Homo sapiens) [Ac-histone H3 (19-27)-MCA] | little methylation occurred
7 | Ac-ARTKQTARK-MCA [Ac-histone H3 (1-9)-MCA] | little methylation occurred
8 | Ac-ARTK-MCA (Ac-ARTK-{AMC}; SMILES CC(=O)N[C@@H](C)C(=O)N[C@@H](CCCNC(=N)N)C(=O)N[C@H](C(=O)N[C@@H](CCCCN)C(=O)Nc1ccc2c(C)cc(=O)oc2c1)[C@@H](C)O; listed as Homo sapiens) [Ac-histone H3 (1-4)-MCA] | methylation often occurred

Same assay, conditions: Example 13; AMC and peptidyl MCA fluorescence; FIGS. 25 and 26

Row | Compound | methylation of peptidyl MCA by His-Set7/9
9 | Ac-KRSK-MCA (Ac-KRSK-{AMC}; SMILES CC(=O)N[C@@H](CCCCN)C(=O)N[C@@H](CCCNC(=N)N)C(=O)N[C@@H](CO)C(=O)N[C@@H](CCCCN)C(=O)Nc1ccc2c(C)cc(=O)oc2c1; listed as Homo sapiens) [Ac-ERα (299-302)-MCA] | methylates
10 | Ac-ARTKQTARK-MCA [Ac-histone H3 (1-9)-MCA] | does not methylate
